Biological target: Tom20 (Chaetomium thermophilum) (Chaetomium thermophilum)
Test: cryo-EM structure; TOM complex purified by Tom22-FLAG in GDN, with or without pALDH (maps showed no differences); core 2.7 Å and holo 3.2 Å (pALDH-incubated), core 3.2 Å and holo 3.8 Å (preprotein-free), C2 symmetry imposed

stoichiometry N: 2
Substance: Tom20 (Chaetomium thermophilum) (receptor)

From publication PMC12305020
